According to US20230270832A1 (published 2023):

Target: T1, MAGEA1 peptide on HLA-C*07:02 (human)
T1 peptide: VRFFFPSL
Assay: killing

Binder	binding result
MAGEA1 TCR 32-41 (TCR, V domains shown) Valpha: TQLLEQSPQFLSIQEGENLTVYCNSSSVFSSLQWYRQEPGEGPVLLVTVVTGGEVKKLKRLTFQFGDARKDSSLHITAAQPGDTGLYLCAGDESISYGKLTFGQGTILTVHP Vbeta: DAGVIQSPRHEVTEMGQEVTLRCKPISGHDYLFWYRQTMMRGLELLIYFNNNVPIDDSGMPEDRFSAKMPNASFSTLKIQPSEPRDSAVYFCASSFLGWNEKLFFGSGTQLSVL	recognises
MAGEA1 TCR 32-39 (TCR, V domains shown) Valpha: DQQVKQNSPSLSVQEGRISILNCDYTNSMFDYFLWYKKYPAEGPTFLISISSIKDKNEDGRFTVFLNKSAKHLSLHIVPSQPGDSAVYFCAASAQNNDMRFGAGTRLTVKP Vbeta: NAGVMQNPRHLVRRRGQEARLRCSPMKGHSHVYWYRQLPEEGLKFMVYLQKENIIDESGMPKERFSAEFPKEGPSILRIQQVVRGDSAAYFCASSPSYEQYFGPGTRLTVT	recognises
